Results on nine molecules are retold here after patent US20090304715A1 (TOKYO UNIVERSITY OF SCIENCE, published 2009).

Experiment [1] deals with T1, CD20 on CD20-positive human Burkitt's lymphoma Ramos cells (human, UniProt P11836 1-297).
T1 construct: whole, on cells; also called B cell-specific differentiation antigen CD20
T1 sequence (looked up): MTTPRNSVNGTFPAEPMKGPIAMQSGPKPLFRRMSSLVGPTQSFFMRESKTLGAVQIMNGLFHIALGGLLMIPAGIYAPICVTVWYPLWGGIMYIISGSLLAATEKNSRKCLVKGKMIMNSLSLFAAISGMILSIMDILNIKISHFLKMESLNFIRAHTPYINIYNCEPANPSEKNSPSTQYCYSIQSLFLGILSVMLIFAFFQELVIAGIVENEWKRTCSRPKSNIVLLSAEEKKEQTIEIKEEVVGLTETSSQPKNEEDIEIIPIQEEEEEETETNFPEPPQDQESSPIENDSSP
Kind of experiment: flow cytometry on CD20-positive Ramos cells, antibody 50 nM, FITC anti-human kappa. How it is done:
CD20-positive human Burkitt's lymphoma Ramos cells were cultured using RPMI1640 containing 10% heat-inactivated fetal bovine serum, 1 mM sodium pyruvate (Wako), 100 U/ml penicillin, and 100 μg/ml streptomycin at 37° C. under 5% CO₂. The Ramos cell culture solution was centrifuged at 600 g for five minutes. After the medium was removed, the cells were suspended in an appropriate volume of medium. After another centrifugation at 600 g for five minutes, the medium was removed. 5 ml of FACS buffer (PBS containing 0.1% BSA and 0.02% NaN₃) was added to suspend the cells, and this was left on ice and blocked for 30 minutes. The supernatant was removed after centrifugation at 600 g for five minutes, cells were suspended at 5×10⁶ cells/ml in FACS buffer, and 100 μl were aliquoted per 1.5-ml tube. […] The supernatants were removed, and cells were washed by adding 500 μl of FACS buffer. This process was repeated twice to completely remove the non-reacted antibodies. Cells were suspended in 100 μl of FACS buffer containing 20 μg/ml FITC-labeled goat anti-human Kappa chain antibody (Biosource International), and allowed to stand on ice in the dark for 30 minutes. Cells were washed with the method described above, suspended in 100 μl of FACS buffer, filtered through a mesh with a hole size of 59 μm, and transferred into FACS tubes. The CD20 binding activity of each antibody was analyzed by fluorescence measurement using FACScan (Becton Dickinson) (FIG. 8).
(In general: A flow cytometer gives signals particle by particle.)

Experiment [2] has as its target T2, recombinant FcγRIA extracellular domain-Gly-His6-GST (human, UniProt P12314 16-292).
T2 construct: extracellular domain; Residues from the XbaI junction between receptor and tag are not spelled out; also called FcγRIA/Gly-His6-GST; not shown: GST amplified from pGEX-2TK
The experiment can be described thus: ELISA, plate-coated recombinant FcγRIA extracellular domain-Gly-His6-GST, HRP anti-human kappa. The protocol: (§1) The prepared FcγR (FcγRIA, FcγRIIA, FcγRIIB, FcγRIIIA^Val, and FcγRIIIA^Phe) were adjusted to 4 μg/ml with PBS, aliquoted into 96-well plates at 50 μl per well, and allowed to stand at 4° C. overnight. Then the solutions were discarded and 180 μl of ELISA Assay buffer (0.5% BSA, 2 mM EDTA, 0.05% Tween20, 25 mM TBS (pH 7.4)) was added to each well. The plates were allowed to stand and blocked at 37° C. for 2 hours. The solutions were discarded, 50 μl of antibody solutions serially diluted with ELISA Assay buffer were added to each well and allowed to react at 37° C. for two hours. The antibody solutions were discarded and wells were washed three times with 150 μl of ELISA Assay buffer. 50 μl of ELISA Assay buffer containing 0.33 μg/ml HRP-labeled goat anti-human Kappa chain antibody was aliquoted into each well and allowed to stand at 37° C. for one hour. After the antibody solution was removed, wells were washed three times with 150 μl of ELISA Assay buffer. 50 μl of a substrate solution (sodium citrate buffer (pH 5.0) containing 0.4% o-phenylenediamine dihydrochloride and 0.003% H₂O₂) was aliquoted and allowed to stand at room temperature in the dark for ten minutes. Then measurements at A450 were carried out using a microplate reader (FIG. 9).
On the technique in general: An ELISA detects its analyte on a solid surface through an enzyme-linked reagent.

For experiment [3], the target named is T3, recombinant FcγRIIB extracellular domain-Gly-His6-GST (human, UniProt P31994 43-217).
T3 construct: extracellular domain; Expressed in 293T cells, purified on Ni-NTA; also called FcγRIIB/Gly-His6-GST; not shown: GST amplified from pGEX-2TK
T3 sequence: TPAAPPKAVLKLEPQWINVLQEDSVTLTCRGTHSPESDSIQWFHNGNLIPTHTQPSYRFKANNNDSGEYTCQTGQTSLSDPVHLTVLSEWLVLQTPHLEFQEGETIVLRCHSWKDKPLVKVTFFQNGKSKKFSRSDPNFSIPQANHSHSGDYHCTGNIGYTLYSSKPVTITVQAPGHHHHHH
Kind of experiment: ELISA, plate-coated recombinant FcγRIIB; Ab50 = antibody concentration at 50% of maximal binding. The protocol: as §1

Experiment [4] deals with T4, recombinant FcγRIIIA (Val^158 type) extracellular domain-Gly-His6-GST (human, UniProt P08637 17-208).
T4 construct: extracellular domain; Valine at position 158 (printed once as 157V); The database entry may carry Phe at this position; also called type-V FcγRIIIA; FcγRIIIA(157V); not shown: GST amplified from pGEX-2TK
Kind of experiment: ELISA, plate-coated recombinant FcγRIIIA (Val158); Ab50 = antibody concentration at 50% of maximal binding. How it is done: as §1

Experiment [5] deals with T5, recombinant FcγRIIA extracellular domain-Gly-His6-GST (human, UniProt P12318 34-217).
T5 construct: extracellular domain; Expressed in 293T cells, purified on Ni-NTA; also called FcγRIIA/Gly-His6-GST; not shown: GST amplified from pGEX-2TK
T5 sequence: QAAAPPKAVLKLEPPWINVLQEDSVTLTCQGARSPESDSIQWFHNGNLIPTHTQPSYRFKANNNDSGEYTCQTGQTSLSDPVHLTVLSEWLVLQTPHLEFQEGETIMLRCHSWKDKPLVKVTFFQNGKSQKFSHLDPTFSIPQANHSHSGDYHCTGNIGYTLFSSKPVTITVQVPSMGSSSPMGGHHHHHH
Kind of experiment: ELISA, plate-coated recombinant FcγRIIA; Ab50 = antibody concentration at 50% of maximal binding; reference M. How it is done: as §1

T2 sequence (P12314 other isoform, or with tags, fused parts or gaps): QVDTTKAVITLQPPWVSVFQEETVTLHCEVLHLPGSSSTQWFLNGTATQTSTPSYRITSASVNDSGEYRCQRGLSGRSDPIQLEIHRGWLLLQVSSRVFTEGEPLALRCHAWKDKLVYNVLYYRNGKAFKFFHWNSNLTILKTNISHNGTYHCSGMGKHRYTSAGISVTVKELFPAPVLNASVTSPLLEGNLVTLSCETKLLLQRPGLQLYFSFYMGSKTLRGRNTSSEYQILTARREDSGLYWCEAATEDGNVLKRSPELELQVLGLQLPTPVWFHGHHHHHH
T4 sequence (P08637 other isoform, or with tags, fused parts or gaps): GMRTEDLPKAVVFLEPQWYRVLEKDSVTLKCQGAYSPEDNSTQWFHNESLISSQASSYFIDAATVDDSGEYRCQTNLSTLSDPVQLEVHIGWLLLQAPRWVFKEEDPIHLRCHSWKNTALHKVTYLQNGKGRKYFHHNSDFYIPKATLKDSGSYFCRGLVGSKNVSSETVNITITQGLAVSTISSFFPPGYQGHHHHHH

B1: mouse/human chimeric anti-CD20 antibody, Fc monomer (M) (antibody)
heavy: not shown
light: QIVLSQSPAILSASPGEKVTMTCRASSSLSFMHWYQQKPGSSPKPWIYATSNLASGVPARFSGSGSGTSYSLTISRVEAEDAATYFCHQWSSNPLTFGAGTKLLETVAAPSVFIFPPSDEQLKSGTASVVCLLNNFYPREAKVQWKVDNALQSGNSQESVTEQDSKDSTYSLSSTLTLSKADYEKHKVYACEVTHQGLSSPVTKSFNRGEC
notes: Variable regions of mouse 1F5, human IgG1/kappa constant regions; Produced in CHO DG44; also called Anti-CD20 HC Fc Monomer
Consider B1, for which the binding result in experiment [1] and in experiment [2] was “binds” in each case. The EC50 (commonly the concentration giving half of the maximal effect) in experiment [3] is around 50 nM; in experiment [4] it was around 30 nM.

B2: modified anti-CD20 antibody, Fc trimer with no spacer (T0) (antibody)
heavy: not shown
light: QIVLSQSPAILSASPGEKVTMTCRASSSLSFMHWYQQKPGSSPKPWIYATSNLASGVPARFSGSGSGTSYSLTISRVEAEDAATYFCHQWSSNPLTFGAGTKLLETVAAPSVFIFPPSDEQLKSGTASVVCLLNNFYPREAKVQWKVDNALQSGNSQESVTEQDSKDSTYSLSSTLTLSKADYEKHKVYACEVTHQGLSSPVTKSFNRGEC
Take B2: the binding result in experiment [1] and in experiment [2] was “binds” each time. Besides, the EC50 in experiment [4] was around 2 nM. The “fold difference of Ab50 against M” value in experiment [5] is around 100 times.

B3: modified anti-CD20 antibody, Fc trimer with one G4S spacer (T1) (antibody)
heavy: not shown
light: QIVLSQSPAILSASPGEKVTMTCRASSSLSFMHWYQQKPGSSPKPWIYATSNLASGVPARFSGSGSGTSYSLTISRVEAEDAATYFCHQWSSNPLTFGAGTKLLETVAAPSVFIFPPSDEQLKSGTASVVCLLNNFYPREAKVQWKVDNALQSGNSQESVTEQDSKDSTYSLSSTLTLSKADYEKHKVYACEVTHQGLSSPVTKSFNRGEC
Turning to B3, the EC50 in experiment [3] and in experiment [4] was around 0.5 nM throughout. The “fold difference of Ab50 against M” value in experiment [5] is around 100 times.

B4: modified anti-CD20 antibody, Fc dimer with three G4S spacers (D3) (antibody)
heavy: not shown
light: QIVLSQSPAILSASPGEKVTMTCRASSSLSFMHWYQQKPGSSPKPWIYATSNLASGVPARFSGSGSGTSYSLTISRVEAEDAATYFCHQWSSNPLTFGAGTKLLETVAAPSVFIFPPSDEQLKSGTASVVCLLNNFYPREAKVQWKVDNALQSGNSQESVTEQDSKDSTYSLSSTLTLSKADYEKHKVYACEVTHQGLSSPVTKSFNRGEC
In the case of B4, the binding result in experiment [1] and in experiment [2] was “binds” throughout. The values for the EC50 in experiment [3] and in experiment [4] were around 5 nM and around 2 nM, respectively. In experiment [5], the “fold difference of Ab50 against M” value is around 60 times.

B5: modified anti-CD20 antibody, Fc trimer with two G4S spacers (T2) (antibody)
heavy: not shown
light: QIVLSQSPAILSASPGEKVTMTCRASSSLSFMHWYQQKPGSSPKPWIYATSNLASGVPARFSGSGSGTSYSLTISRVEAEDAATYFCHQWSSNPLTFGAGTKLLETVAAPSVFIFPPSDEQLKSGTASVVCLLNNFYPREAKVQWKVDNALQSGNSQESVTEQDSKDSTYSLSSTLTLSKADYEKHKVYACEVTHQGLSSPVTKSFNRGEC
For the molecule B5, the EC50 in experiment [3] and in experiment [4] was around 0.5 nM each time. For the same molecule, in experiment [5], the “fold difference of Ab50 against M” value is around 100 times.

B6: modified anti-CD20 antibody, Fc dimer with two G4S spacers (D2) (antibody)
heavy: not shown
light: QIVLSQSPAILSASPGEKVTMTCRASSSLSFMHWYQQKPGSSPKPWIYATSNLASGVPARFSGSGSGTSYSLTISRVEAEDAATYFCHQWSSNPLTFGAGTKLLETVAAPSVFIFPPSDEQLKSGTASVVCLLNNFYPREAKVQWKVDNALQSGNSQESVTEQDSKDSTYSLSSTLTLSKADYEKHKVYACEVTHQGLSSPVTKSFNRGEC
As to B6, the EC50 in experiment [4] is around 30 nM.

B7: modified anti-CD20 antibody, Fc dimer with one G4S spacer (D1) (antibody)
heavy: not shown
light: QIVLSQSPAILSASPGEKVTMTCRASSSLSFMHWYQQKPGSSPKPWIYATSNLASGVPARFSGSGSGTSYSLTISRVEAEDAATYFCHQWSSNPLTFGAGTKLLETVAAPSVFIFPPSDEQLKSGTASVVCLLNNFYPREAKVQWKVDNALQSGNSQESVTEQDSKDSTYSLSSTLTLSKADYEKHKVYACEVTHQGLSSPVTKSFNRGEC
Take B7: the EC50 in experiment [4] is around 30 nM.

B8: modified anti-CD20 antibody, Fc trimer with three G4S spacers (T3) (antibody)
heavy: not shown
light: QIVLSQSPAILSASPGEKVTMTCRASSSLSFMHWYQQKPGSSPKPWIYATSNLASGVPARFSGSGSGTSYSLTISRVEAEDAATYFCHQWSSNPLTFGAGTKLLETVAAPSVFIFPPSDEQLKSGTASVVCLLNNFYPREAKVQWKVDNALQSGNSQESVTEQDSKDSTYSLSSTLTLSKADYEKHKVYACEVTHQGLSSPVTKSFNRGEC
In the case of B8, the EC50 in experiment [3] and in experiment [4] was around 0.5 nM throughout. For the same molecule, the “fold difference of Ab50 against M” value in experiment [5] was around 100 times.

B9: modified anti-CD20 antibody, Fc dimer with no spacer (D0) (antibody)
heavy: not shown
light: QIVLSQSPAILSASPGEKVTMTCRASSSLSFMHWYQQKPGSSPKPWIYATSNLASGVPARFSGSGSGTSYSLTISRVEAEDAATYFCHQWSSNPLTFGAGTKLLETVAAPSVFIFPPSDEQLKSGTASVVCLLNNFYPREAKVQWKVDNALQSGNSQESVTEQDSKDSTYSLSSTLTLSKADYEKHKVYACEVTHQGLSSPVTKSFNRGEC
Turning to B9, the binding result in experiment [1] and in experiment [2] was “binds” in each case. In addition, the EC50 in experiment [4] is around 2 nM.
